According to paper PMC4072508, “Genome-Wide Prediction and Validation of Peptides That Bind Human Prosurvival Bcl-2 Proteins” (PLoS Computational Biology, 2014):

T1: Mcl-1, Q07820
T1 chain: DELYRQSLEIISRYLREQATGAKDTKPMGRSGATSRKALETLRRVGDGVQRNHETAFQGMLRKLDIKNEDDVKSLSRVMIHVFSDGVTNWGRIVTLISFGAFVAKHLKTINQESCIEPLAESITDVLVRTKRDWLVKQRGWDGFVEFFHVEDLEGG

B1: MST1R (peptide)
chain: RDPQGWVAGNLSARGDGAAGFTLPGF
B2: SOS1 (peptide)
chain: QLSKPGAALYLQSILEGFKEAVQYVL
B3: SEH1L (peptide)
chain: RVSWNITGTVLASSGDDGCVRLWKAN
B4: CLTCL1 (peptide)
chain: FRFAQLCGLHDVIHADELEELMCYYQ
B5: PPM1F (peptide)
chain: CALIAGATLHDAWLGDSQVILVQQGQ
B6: CIITA (peptide)
chain: PPDAHVLGKADEAAGQDFSLDLRSTG
B7: MAPK8IP3 (peptide)
chain: HPRRESQVRQLAWILDGVWVSIRLDS
B8: NEDD9 (peptide)
chain: SKFVILSAHKLVFIGDTLTRQVTAQD
B9: POLE (peptide)
chain: CILNSFYGYVDRKGARWYSMEMAGIV
B10: SLC1A2 (peptide)
chain: IGFFIAFGIAMGKMGDQAKLMVDFFN
B11: RINT1 (peptide)
chain: LNAVNYISTVLADWLDNVFFLQLQQA
B12: ADCY10 (peptide)
chain: EKVLIFGGDILKFAGDALLALWRVER
B13: PPM1F (peptide)
chain: CALIAGATLHVAWLGDSQVILVQQGQ
B14: HDAC3 (peptide)
chain: VDFYQPTCIVDQCGADSLGCDRLGCF
B15: NCOR2 (peptide)
chain: QQMHHNAATADAQRADMLRGLSPRES
B16: MST1R (peptide)
chain: RDPQGWVAGNLSARLDGAAGFTLPGF
B17: MAPK8IP3 (peptide)
chain: HPRRESQVRQLAWIGDGVWVSIRLDS
B18: SPOCK2 (peptide)
chain: GKPETCTGQDLADLLDRLRDWFQLLH
B19: FLAD1 (peptide)
chain: LSPGRSVTAGDIIVGDEILKGHTQDT
B20: GNB5 (peptide)
chain: SVRYYPSGDAFASGSDDATCRLYDLR
B21: RYR1 (peptide)
chain: DLSAVTLSREDQAMAEQLAENYHNTW
B22: NT5C2 (peptide)
chain: CDLLGAKGKDILYILDHIFGDILKSK
B23: GNB5 (peptide)
chain: SVRYYPSGDADASGSDDATCRLYDLR
B24: CCDC76 (peptide)
chain: KLPVVGIGKHDCGMATDLALRCLVET
B25: FAM115A (peptide)
chain: RGAMLSLATGLAHSGSDLSLLVPEIE
B26: SPAG9 (peptide)
chain: HPRKESQVRQDAWVGDGVWVSIRLDS
B27: MAPKAPK2 (peptide)
chain: AFTEREASEIMKSILEAIQYLHSINI
B28: DCAF8 (peptide)
chain: TLHFNQRGTWLASGSDDLKVVVWDWV
B29: MLLT4 (peptide)
chain: KNIAGALAFWDANASELLNFIKQDRD
B30: RINT1 (peptide)
chain: LNAVNYISTVDADWADNVFFLQLQQA
B31: SLC40A1 (peptide)
chain: AKFLLYLGHSLSTWGDRMWHFAVSVF
B32: VPS13C (peptide)
chain: SRQPRDFGDSDARGGKGFLRGVVGGV
B33: SPOCK2 (peptide)
chain: GKPETCTGQDLADLGDRLRDWFQLLH
B34: PRKDC (peptide)
chain: SHALICISHWILGILDRHLNNFMVAM
B35: EXOC5 (peptide)
chain: DEHISYVATKDCHLGDQLEGVNTPRQ
B36: HDLBP (peptide)
chain: RHFVIRRGQVLREIAEEYGGVMVSFP
B37: STRN (peptide)
chain: LGLGELAGLTVANEADSLTYDIANNK
B38: TIGD7_3eA (peptide)
chain: VLSRIEAGRSLKSVADEFGISKSTFY
B39: PKD2L1 (peptide)
chain: NKTMTQLSSTLARCAKDILGFAVMFF
B40: DBC1 (peptide)
chain: ISDVQVFGYSLRFNADLLRSAVQQVN
B41: GLOD4 (peptide)
chain: VILADPDGHEDCFVGDEAFRELSKMD

Target: Bcl-xL, Q07817
Sequence (Q07817 1-209): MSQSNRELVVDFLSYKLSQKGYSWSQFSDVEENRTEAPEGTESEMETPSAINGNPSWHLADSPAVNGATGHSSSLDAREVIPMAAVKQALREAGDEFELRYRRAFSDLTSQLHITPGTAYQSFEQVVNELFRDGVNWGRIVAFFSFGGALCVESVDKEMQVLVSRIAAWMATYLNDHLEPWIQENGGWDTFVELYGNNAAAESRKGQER
Test: peptide SPOT array, c-Myc-tagged receptor at 1 uM or 100 nM, anti-c-Myc-Cy3

SPOT signal as a fraction of Bim BH3's signal on the same receptor and array	Binder
0.02	B1
0.03	B2
0.3	B3
0.02	B4
0.02	B5
0.01	B6
0.03	B7
0.05	B8
0.09	B9
0.02	B10
0.02	B11
0.04	B12
0.02	B13
0.01	B14
0.02	B15
0.02	B16
0.03	B17
0.02	B18
0.01	B19
0.02	B20
0.02	B21

SPOT signal as a fraction of Bim BH3's signal on the same receptor and array	Binder
0.06	B22
0.01	B23
0.01	B24
0.09	B25
0.02	B26
0.02	B27
0.02	B28
0.02	B29
0.02	B30
0.1	B31
0.48	B32
0.02	B33
0.03	B34
0.02	B35
0.05	B36
0.02	B37
0.95	B38
0.15	B39
0.02	B40
0.01	B41

Target: T1, Mcl-1, Q07820
Test: as above

SPOT signal as a fraction of Bim BH3's signal on the same receptor and array	Binder
0.02	B1
0.03	B2
0.08	B3
0.02	B4
0.01	B5
0.01	B6
0.03	B7
0.04	B8
0.1	B9
0.02	B10
0.03	B11
0.02	B12
0.01	B13
0.01	B14
0.01	B15
0.02	B16
0.02	B17
0.01	B18
0.01	B19
0.02	B20
0.02	B21

SPOT signal as a fraction of Bim BH3's signal on the same receptor and array	Binder
0.06	B22
0.01	B23
0.01	B24
0.06	B25
0.02	B26
0.01	B27
0.02	B28
0.02	B29
0.03	B30
0.07	B31
0.17	B32
0.01	B33
0.02	B34
0.01	B35
0.04	B36
0.01	B37
0.02	B38
0.11	B39
0.02	B40
0.01	B41
